Test results from the supplement of paper PMC12042874.
± gives the uncertainty stated by the source.

Assay: amyloid nucleation score (Sup35N fusion, yeast selection) (log enrichment); library NNK2; higher = more nucleation; inactive = no reads after selection
In short: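 The nucleation score equals the log enrichment of output over input reads from DiMSum, centred on the mode score of non-aggregating sequences. It was computed only for sequences with 100 or more input reads. The reads came from Illumina sequencing of plasmid inserts from psi-negative yeast expressing Sup35N fused to peptides of 20 random codons, induced with 100 μM copper sulfate for 24 hours and grown 7 days at 30°C without adenine and uracil.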

Substance	amyloid nucleation score
DQGVMLFRG	-0.134 ± 0.32
RVIVGRYWQSTDVVYYIWNF	-1.59 ± 0.76
MKFKPDLVLFRYVHVKVYLE	-1.01 ± 1.1
YMFDFYFVLYESKYAWINPK	inactive
GHSLYPWSALTPLL	inactive
TFMFDHRIGISDGLSTIMVI	0.923 ± 0.81
CIFYFMILFSGDIKCLNKPL	inactive
TSDLNNSSSMKAYSNEHSGC	0.411 ± 0.4
SNLVKHRQV	0.745 ± 0.46
NLIFI	inactive
LYENRQFFCQGFGRWCMKLL	0.45 ± 0.74
LVLWKLQVCSPLTVLRTPYR	0.889 ± 0.28
GSRARNLIASAQYYNG	inactive
MVAFNTFSD	inactive
VSYSGNRYWCSFVNKKAGGN	1.32 ± 0.27
NCLVISFKLWHNLMTVGYGD	3.66 ± 0.079
APVLSDN	-0.07 ± 0.49
RVLVSS	0.713 ± 0.8
TVFNR	0.236 ± 0.3
SYGIAWTIMT	-0.701 ± 0.45
YLQVWYTREFYIFRGKMDLL	inactive
SWVVL	-0.563 ± 0.79

Substance	amyloid nucleation score
NRYVLCNLVVISVSGISLCT	7.249 ± 0.063
YSNANGRTRVWGPRERKKDQ	-0.004 ± 0.65
CCIRSLWLNLVLTNASGPSL	4.39 ± 0.049
TSLVLCYLTIELSVLISSGN	0.221 ± 0.36
SNGCQTRADGLTECDICKPS	0.33 ± 0.24
RSYIRFGNYVHYDQLWLFGG	3.04 ± 0.12
DRTGGPIWVVGYPARGRAAL	0.99 ± 0.29
VSGLPN	inactive
VDIEDGLG	0.13 ± 0.22
TSLGNL	-0.825 ± 1.1
LFDSLPDYITTYYNNDAQQG	-1.85 ± 1
RLMTVI	-0.229 ± 0.28
YSLLLTIKPTTSWRCVSDGH	2.27 ± 0.23
AGKFYAGRHNSD	inactive
MTIGFNAIYHQFRVTRCLVT	0.545 ± 0.53
LEAISCKWYTLYVVYSCNSW	-0.877 ± 1
PSLMNEVRMGVQCLLFST	0.108 ± 0.23
GFGLPTGEVVTNNMALGKTE	-0.844 ± 0.49
LNVVARMFYLSLSSSGNWSG	-0.849 ± 0.64
CTDQRGLSIIVLGYNSHSMR	5.682 ± 0.054
ASIGY	0.663 ± 0.22
EFWPIITTSRRDMISNLDQG	-0.593 ± 0.43

Substance	amyloid nucleation score
RFMVFGNLYDERYTVRFLMR	3.66 ± 0.089
VFFLFYTMWRLVYFEPNMKS	-1.25 ± 0.62
WHENMSGTPKLASTNNGSKR	2.61 ± 0.18
GSLARSTD	1.25 ± 0.15
NRVGSIPIGPVFTADVAIVL	4.16 ± 0.091
ARCCFVPEEYSVV	1.22 ± 0.25
GVLRQEFYKSANNSMKQWLF	inactive
FCISFYTNIPSDS	-0.836 ± 0.55
FLLSISNRVDMFIFVLHHFT	inactive
SSWPSMST	-0.458 ± 0.28
FYFVSSRSIDGVFFRKILNS	inactive
WSDSFTCDCGKLITTSSRLS	2.02 ± 0.15
WFENNDESMGQEWNKHCTSV	0.718 ± 0.24
RSRAQQHSQHNTVDITPTRS	0.194 ± 0.32
LLRTHTSYRL	-0.836 ± 0.55
SIAGVIMVDSSSLSM	-1.01 ± 0.78
YNIIYWFLYKVQAWSVCSWG	5.31 ± 0.077
VDRRNAKYWRGRKSTWVRGV	1.3 ± 0.26
STMFSVNFST	inactive
GNRFNRRLWSQATILEF	-0.166 ± 0.76
QFDMEQFVQCPGTMSSRAVG	5.04 ± 0.059
YCNYVTRDSFAFMSSFFMSA	-1.55 ± 1.1

Substance	amyloid nucleation score
LVISLSISCAGKRVAQSHMG	-0.951 ± 0.76
TTMWYTS	-0.837 ± 1.1
MMFILLYKTFCAGEWAGGMY	6.053 ± 0.04
SHTWKQMRYYLDNWSLY	-0.288 ± 1
CRMMI	0.591 ± 0.36
LYLCGWVGRSMGFDARPCHF	3.38 ± 0.098
YKFRYWAYFFSDVAGVI	-1.75 ± 0.75
RCFSRNFEECFENAYTWV	-1.07 ± 0.33
RAFCVGSTYSSSGGQSLMRV	inactive
EPTMVRFDSLFVSDCYMSA	0.499 ± 0.4
VSAELWIQSSVTSAYIIWQL	0.98 ± 0.81
LEYFITTSGSSSKVLHGFTM	-0.986 ± 1.1
VCGVNV	-0.363 ± 1.1
NRHPRRYRNNAGDDSLMRIL	1.74 ± 0.096
LYFLV	6.55 ± 0.085
GQWRKGAYMVC	0.477 ± 0.34
RETLAFA	-0.329 ± 0.33
LSRVSE	-0.405 ± 0.39
NVSRGTKIDNMDRVYFYPEA	-0.055 ± 0.46
